{"source": "patent US20220372112A1", "about": "(KEYMED BIOSCIENCES, published 2022)", "binders": {"B1": {"name": "18D10 (antibody, V domains shown)", "VH": "DVQLQESGPGLVKPSQSLSLTCTVTGYSITSNYAWNWIRQFPGNKLEWMGYINYSGNTNYNPSLKSRISITRDTSKNQFFLQLNSVTAEDTATYYCATSYYGNSFIYWGQGTLVTVSA", "VL": "DIVMTQSPSSLTVTAGEKVTMSCKSSQSLLNSGNQKNYLTWYQQKPGQPPKLLIYWASTRESGVPDRFTGSGSGTDFTLTISSVQAEDLAVYYCQNAYSFPWTFGGGTKLEIK", "notes": "also called Clone 18D10; 18D10 Chimera"}}, "key": {"[1]": {"biological_target": "T1, human Claudin 18.2 (human, UniProt P56856-2 1-261)", "T1 construct": "whole, on cells", "T1 sequence (looked up)": "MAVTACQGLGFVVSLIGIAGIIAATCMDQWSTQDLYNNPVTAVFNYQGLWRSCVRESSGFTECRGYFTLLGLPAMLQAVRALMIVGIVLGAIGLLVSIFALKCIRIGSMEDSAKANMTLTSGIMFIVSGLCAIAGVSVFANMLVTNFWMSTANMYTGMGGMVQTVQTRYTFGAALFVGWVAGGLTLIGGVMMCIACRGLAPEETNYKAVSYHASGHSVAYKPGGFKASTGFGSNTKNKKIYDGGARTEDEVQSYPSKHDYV", "assay": "flow cytometry (iQue) on cells, antibody from 100 nM in 5-fold steps; cell line not named in Example 5", "method_in_brief": "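Cells in log phase were blocked with 3% BSA, then incubated with antibody (from 100 nM, 5-fold, 8 points) for 1 hour at 4° C. Binding was detected with AF647 anti-human secondary antibody (40 minutes at 4° C.) and read by flow cytometry on iQue.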"}, "[2]": {"biological_target": "T2, human Claudin 18.1 (human, UniProt P56856 1-261)", "T2 construct": "whole, on cells", "T2 sequence (looked up)": "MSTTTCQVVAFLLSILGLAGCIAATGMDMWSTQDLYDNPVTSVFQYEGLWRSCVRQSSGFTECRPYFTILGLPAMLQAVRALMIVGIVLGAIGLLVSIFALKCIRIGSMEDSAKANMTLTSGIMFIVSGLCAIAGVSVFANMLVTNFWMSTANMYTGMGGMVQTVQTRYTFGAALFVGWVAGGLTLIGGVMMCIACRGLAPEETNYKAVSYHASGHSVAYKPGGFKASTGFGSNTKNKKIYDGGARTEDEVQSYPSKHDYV", "assay": "flow cytometry on HEK293-Claudin 18.1 cells, chimeric IgG1", "procedure": "(§1) The HEK293-Claudin 18.1 cells, HEK293-Claudin 18.2 cells and HEK293 cells at logarithmic growth phase were taken, after digesting, added at 5×10⁴ cells/100 μL to the U-shaped 96-well plate, centrifuged at 1100 rpm for 3 minutes, the supernatant was discarded, the cells were gently patted and loosed, 50 μL of antibody diluted according to the series was added to each well (antibody concentration starts from 100 nM, 5 times dilution in 8 series), and incubate at 4° C. for 1 hour. After the incubation, 140 μL 0.5% BSA was added to each well to wash 3 times, the secondary antibody AlexaFluro647 anti-human IgG (Jackson ImmunoResearch, catalog number: 109-606-170) was added with 30 μL/well, and incubated at 4° C. for 40 minutes. After the incubation, 140 μL 0.5% BSA was added to each well to wash 3 times, and finally resuspended each well with 50 μL PBS for flow cytometry (iQue Screener) detection."}, "[3]": {"biological_target": "T1, human Claudin 18.2", "assay": "flow cytometry (iQue) on HEK293-Claudin 18.2 cells, chimeric IgG1", "procedure": "as §1"}}, "data": [{"binder": "B1", "values": [{"measurement": "EC50", "setting": "[1]", "result": 2.07, "unit": "nM"}, {"measurement": "binding result", "setting": "[2]", "result": "no binding (tested: 100 nM (highest concentration tested))"}, {"measurement": "EC50", "setting": "[3]", "result": 0.37, "unit": "nM"}]}]}
